Assay results as given in paper PMC9400332.

Conditions: glycan lost

Protein | localisation_or_trafficking | other: cell-cell fusion activity | other: cell-cell fusion activity, fold_change | other: proteolytic processing | expression_or_secretion
Cedar virus fusion protein F (CedV F): g2 (protein) parent chain: MSNKRTTVLIIISYTLFYLNNAAIVGFDFDKLNKIGVVQGRVLNYKIKGDPMTKDLVLKFIPNIVNITECVREPLSRYNETVRRLLLPIHNMLGLYLNNTNAKMTGLMIAGVIMGGIAIGIATAAQITAGFALYEAKKNTENIQKLTDSIMKTQDSIDKLTDSVGTSILILNKLQTYINNQLVPNLELLSCRQNKIEFDLMLTKYLVDLMTVIGPNINNPVNKDMTIQSLSLLFDGNYDIMMSELGYTPQDFLDLIESKSITGQIIYVDMENLYVVIRTYLPTLIEVPDAQIYEFNKITMSSNGGEYLSTIPNFILIRGNYMSNIDVATCYMTKASVICNQDYSLPMSQNLRSCYQGETEYCPVEAVIASHSPRFALTNGVIFANCINTICRCQDNGKTITQNINQFVSMIDNSTCNDVMVDKFTIKVGKYMGRKDINNINIQIGPQIIIDKVDLSNEINKMNQSLKDSIFYLREAKRILDSVNISLISPSVQLFLIIISVLSFIILLIIIVYLYCKSKHSYKYNKFIDDPDYYNDYKRERINGKASKSNNIYYVGD | increases | decreases | decreases | no change | –
Cedar virus fusion protein F (CedV F): g3 (protein) parent chain: MSNKRTTVLIIISYTLFYLNNAAIVGFDFDKLNKIGVVQGRVLNYKIKGDPMTKDLVLKFIPNIVNITECVREPLSRYNETVRRLLLPIHNMLGLYLNNTNAKMTGLMIAGVIMGGIAIGIATAAQITAGFALYEAKKNTENIQKLTDSIMKTQDSIDKLTDSVGTSILILNKLQTYINNQLVPNLELLSCRQNKIEFDLMLTKYLVDLMTVIGPNINNPVNKDMTIQSLSLLFDGNYDIMMSELGYTPQDFLDLIESKSITGQIIYVDMENLYVVIRTYLPTLIEVPDAQIYEFNKITMSSNGGEYLSTIPNFILIRGNYMSNIDVATCYMTKASVICNQDYSLPMSQNLRSCYQGETEYCPVEAVIASHSPRFALTNGVIFANCINTICRCQDNGKTITQNINQFVSMIDNSTCNDVMVDKFTIKVGKYMGRKDINNINIQIGPQIIIDKVDLSNEINKMNQSLKDSIFYLREAKRILDSVNISLISPSVQLFLIIISVLSFIILLIIIVYLYCKSKHSYKYNKFIDDPDYYNDYKRERINGKASKSNNIYYVGD | decreases | – | – | no change | –
Cedar virus fusion protein F (CedV F): g6 (protein) parent chain: MSNKRTTVLIIISYTLFYLNNAAIVGFDFDKLNKIGVVQGRVLNYKIKGDPMTKDLVLKFIPNIVNITECVREPLSRYNETVRRLLLPIHNMLGLYLNNTNAKMTGLMIAGVIMGGIAIGIATAAQITAGFALYEAKKNTENIQKLTDSIMKTQDSIDKLTDSVGTSILILNKLQTYINNQLVPNLELLSCRQNKIEFDLMLTKYLVDLMTVIGPNINNPVNKDMTIQSLSLLFDGNYDIMMSELGYTPQDFLDLIESKSITGQIIYVDMENLYVVIRTYLPTLIEVPDAQIYEFNKITMSSNGGEYLSTIPNFILIRGNYMSNIDVATCYMTKASVICNQDYSLPMSQNLRSCYQGETEYCPVEAVIASHSPRFALTNGVIFANCINTICRCQDNGKTITQNINQFVSMIDNSTCNDVMVDKFTIKVGKYMGRKDINNINIQIGPQIIIDKVDLSNEINKMNQSLKDSIFYLREAKRILDSVNISLISPSVQLFLIIISVLSFIILLIIIVYLYCKSKHSYKYNKFIDDPDYYNDYKRERINGKASKSNNIYYVGD | decreases | – | – | no change | –
Cedar virus fusion protein F (CedV F): g1 (protein) parent chain: MSNKRTTVLIIISYTLFYLNNAAIVGFDFDKLNKIGVVQGRVLNYKIKGDPMTKDLVLKFIPNIVNITECVREPLSRYNETVRRLLLPIHNMLGLYLNNTNAKMTGLMIAGVIMGGIAIGIATAAQITAGFALYEAKKNTENIQKLTDSIMKTQDSIDKLTDSVGTSILILNKLQTYINNQLVPNLELLSCRQNKIEFDLMLTKYLVDLMTVIGPNINNPVNKDMTIQSLSLLFDGNYDIMMSELGYTPQDFLDLIESKSITGQIIYVDMENLYVVIRTYLPTLIEVPDAQIYEFNKITMSSNGGEYLSTIPNFILIRGNYMSNIDVATCYMTKASVICNQDYSLPMSQNLRSCYQGETEYCPVEAVIASHSPRFALTNGVIFANCINTICRCQDNGKTITQNINQFVSMIDNSTCNDVMVDKFTIKVGKYMGRKDINNINIQIGPQIIIDKVDLSNEINKMNQSLKDSIFYLREAKRILDSVNISLISPSVQLFLIIISVLSFIILLIIIVYLYCKSKHSYKYNKFIDDPDYYNDYKRERINGKASKSNNIYYVGD | decreases | – | – | – | no change
Cedar virus fusion protein F (CedV F): g4 (protein) parent chain: MSNKRTTVLIIISYTLFYLNNAAIVGFDFDKLNKIGVVQGRVLNYKIKGDPMTKDLVLKFIPNIVNITECVREPLSRYNETVRRLLLPIHNMLGLYLNNTNAKMTGLMIAGVIMGGIAIGIATAAQITAGFALYEAKKNTENIQKLTDSIMKTQDSIDKLTDSVGTSILILNKLQTYINNQLVPNLELLSCRQNKIEFDLMLTKYLVDLMTVIGPNINNPVNKDMTIQSLSLLFDGNYDIMMSELGYTPQDFLDLIESKSITGQIIYVDMENLYVVIRTYLPTLIEVPDAQIYEFNKITMSSNGGEYLSTIPNFILIRGNYMSNIDVATCYMTKASVICNQDYSLPMSQNLRSCYQGETEYCPVEAVIASHSPRFALTNGVIFANCINTICRCQDNGKTITQNINQFVSMIDNSTCNDVMVDKFTIKVGKYMGRKDINNINIQIGPQIIIDKVDLSNEINKMNQSLKDSIFYLREAKRILDSVNISLISPSVQLFLIIISVLSFIILLIIIVYLYCKSKHSYKYNKFIDDPDYYNDYKRERINGKASKSNNIYYVGD | – | – | – | – | no change
